Literature values, collected in patent US20060084109.

Biological target: T1, Formamidopyrimidine glycosylase (Fpg, MutM) (Escherichia coli) (UniProt P05523)
T1 sequence: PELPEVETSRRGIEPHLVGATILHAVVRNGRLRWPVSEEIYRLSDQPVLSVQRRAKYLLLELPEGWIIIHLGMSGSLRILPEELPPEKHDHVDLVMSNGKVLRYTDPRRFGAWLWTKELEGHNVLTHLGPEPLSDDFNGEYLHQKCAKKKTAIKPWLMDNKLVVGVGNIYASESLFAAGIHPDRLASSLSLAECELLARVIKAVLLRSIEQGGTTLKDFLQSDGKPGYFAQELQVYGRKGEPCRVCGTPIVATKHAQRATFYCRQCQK
Experiment: cleavage_in_vitro
Details: 8-oxo-dG at position 10, cytidine opposite in complementary strand; CITED Vuyisich and Beal 2002; product from 20 nM substrate, 1 nM Fpg, 7 min, room temperature, no inhibitor

TCATGGGTCNTCGGTATA (double strand) [Fpg 18-mer 8-oxo-dG substrate duplex]
activity: 2 nM
